Measured values: US20250019439A1 (Adimab, published 2025)

Experiments:
ADI-70326 = molecular target: T1, ADI-70326; test: SPR Carterra, yeast anti-ID
T1 construct: anti-CD3 antibody made in CHO cells, captured by anti-human Fc
Protocol: (§1) Kinetic analysis was conducted at 25° C. in an HBSTE running buffer system (Carterra Cat #3630) using a Carterra LSA (Carterra USA, Salt Lake City, UT). The sample compartment was maintained at 20° C. for the duration of each experiment.
(§2) For antibody capture experiments, a goat anti-human Fc antibody (Jackson ImmunoResearch) was covalently coupled to an HC30M sensor chip surface via standard amine coupling (1:1 EDC:NHS) and then blocked with ethanolamine (1.0 M, pH 8.5). Covalent coupling steps were performed in 25 mM MES buffer (Carterra, Cat #3625) plus 0.05% Tween20. The anti-CD3 antibodies (100 nM in running buffer) were flowed over discrete regions of interest on the chip surface for 5 minutes. […] Dissociation of the anti-idiotype antibodies was monitored for 300s. Several blank buffer samples were injected over the entire chip surface at the start of each non-regenerative kinetic cycle. The preceding blank buffer injection was used for blank surface subtraction. At the end of each non-regenerative kinetic cycle, all surfaces were regenerated via two 30s injections of 10 mM glycine, pH 1.7.
(§3) For data processing and fitting, sensorgrams were double reference subtracted with a baseline drift correction of 4 RU. Sensorgrams were y-aligned and baseline corrected, filtered and cropped to include only the association and dissociation steps. Data was fitted to a 1:1 binding model using Carterra Kinetics Data Analysis software version 1.7.1.3055.

ADI-70327 = molecular target: T2, ADI-70327; test: SPR Carterra, yeast anti-ID
T2 construct: anti-CD3 antibody made in CHO cells, captured by anti-human Fc
T2 sequence (VH, as listed by the source limits assumed, chain 1 of 2): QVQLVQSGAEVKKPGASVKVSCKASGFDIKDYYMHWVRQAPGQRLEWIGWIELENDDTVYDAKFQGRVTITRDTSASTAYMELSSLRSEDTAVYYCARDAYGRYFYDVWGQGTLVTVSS
T2 sequence (VL, as listed by the source limits assumed, chain 2 of 2): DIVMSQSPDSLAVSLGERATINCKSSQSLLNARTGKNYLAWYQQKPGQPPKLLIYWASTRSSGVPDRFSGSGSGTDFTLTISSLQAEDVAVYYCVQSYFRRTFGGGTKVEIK
Protocol: as §1, §2, §3

ADI-70330 = molecular target: T3, ADI-70330; test: SPR Carterra, yeast anti-ID
T3 construct: anti-CD3 antibody made in CHO cells, captured by anti-human Fc
T3 sequence (VH, as listed by the source limits assumed, chain 1 of 2): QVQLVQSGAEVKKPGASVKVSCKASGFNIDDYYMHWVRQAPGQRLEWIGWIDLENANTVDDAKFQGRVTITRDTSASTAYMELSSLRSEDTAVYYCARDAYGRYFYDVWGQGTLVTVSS
Protocol: as §1, §2, §3

ADI-67445 = molecular target: T4, ADI-67445; test: SPR Carterra, yeast anti-ID
T4 construct: anti-CD3 antibody made in CHO cells, captured by anti-human Fc
T4 sequence (VH, as listed by the source limits assumed, chain 1 of 2): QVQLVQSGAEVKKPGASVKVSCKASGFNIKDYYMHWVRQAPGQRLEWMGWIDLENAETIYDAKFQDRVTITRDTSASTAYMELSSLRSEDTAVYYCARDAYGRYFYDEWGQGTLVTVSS
T4 sequence (VL, as listed by the source limits assumed, chain 2 of 2): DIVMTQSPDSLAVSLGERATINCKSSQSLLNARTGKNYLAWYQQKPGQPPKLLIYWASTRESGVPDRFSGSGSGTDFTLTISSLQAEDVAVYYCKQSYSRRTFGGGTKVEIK
Protocol: as §1, §2, §3

ADI-26909 = molecular target: T5, ADI-26909; test: SPR Carterra, yeast anti-ID
T5 construct: anti-CD3 antibody made in CHO cells, captured by anti-human Fc
T5 sequence (VH, as listed by the source limits assumed, chain 1 of 2): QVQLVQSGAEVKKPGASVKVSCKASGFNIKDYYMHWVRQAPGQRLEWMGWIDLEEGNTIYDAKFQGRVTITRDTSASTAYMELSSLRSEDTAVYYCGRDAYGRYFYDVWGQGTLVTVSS
Protocol: as §1, §2, §3

ADI-26921 IgG = molecular target: T6, ADI-26921 IgG; test: SPR Carterra, yeast anti-ID
T6 construct: anti-CD3 IgG
T6 sequence (VH, as listed by the source limits assumed, chain 1 of 2): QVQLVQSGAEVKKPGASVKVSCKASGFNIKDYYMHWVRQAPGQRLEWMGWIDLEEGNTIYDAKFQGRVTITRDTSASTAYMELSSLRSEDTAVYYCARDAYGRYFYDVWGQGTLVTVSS
T6 sequence (VL, as listed by the source limits assumed, chain 2 of 2): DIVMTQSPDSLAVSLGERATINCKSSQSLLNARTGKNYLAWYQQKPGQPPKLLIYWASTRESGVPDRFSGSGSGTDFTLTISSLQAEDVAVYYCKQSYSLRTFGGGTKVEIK
Protocol: as §1, §2, §3

ADI-26915 = molecular target: T7, ADI-26915; test: SPR Carterra, yeast anti-ID
T7 construct: anti-CD3 antibody made in CHO cells, captured by anti-human Fc
Protocol: as §1, §2, §3

ADI-48587 = molecular target: T8, ADI-48587; test: SPR Carterra, yeast anti-ID
T8 construct: pH-dependent anti-CD3 antibody made in CHO cells
T8 sequence (VH, as listed by the source, chain 1 of 2): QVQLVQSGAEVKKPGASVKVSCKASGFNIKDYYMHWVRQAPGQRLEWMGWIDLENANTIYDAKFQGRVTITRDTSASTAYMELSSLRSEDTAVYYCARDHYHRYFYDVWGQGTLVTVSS
T8 sequence (VL, as listed by the source, chain 2 of 2): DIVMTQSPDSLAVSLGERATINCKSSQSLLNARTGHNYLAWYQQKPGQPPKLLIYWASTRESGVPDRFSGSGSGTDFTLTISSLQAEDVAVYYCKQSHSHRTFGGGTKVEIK
Protocol: as §1, §2, §3

ADI-74967 = molecular target: T9, ADI-74967; test: SPR Carterra, yeast anti-ID
T9 construct: pH-dependent anti-CD3 antibody made in CHO cells
T9 sequence (VL, as listed by the source, chain 2 of 2): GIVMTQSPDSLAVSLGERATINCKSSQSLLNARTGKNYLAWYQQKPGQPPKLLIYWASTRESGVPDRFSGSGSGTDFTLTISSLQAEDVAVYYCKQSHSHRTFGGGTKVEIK
Protocol: as §1, §2, §3

CTL-62223 = molecular target: T10, CTL-62223; test: SPR Carterra, yeast anti-ID
T10 construct: also called mosunetuzumab
T10 sequence (VH, as listed by the source, chain 1 of 2): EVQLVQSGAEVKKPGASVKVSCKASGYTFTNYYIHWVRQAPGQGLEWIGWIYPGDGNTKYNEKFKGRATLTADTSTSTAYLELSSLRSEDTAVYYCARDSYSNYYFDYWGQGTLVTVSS
T10 sequence (VL, as listed by the source, chain 2 of 2): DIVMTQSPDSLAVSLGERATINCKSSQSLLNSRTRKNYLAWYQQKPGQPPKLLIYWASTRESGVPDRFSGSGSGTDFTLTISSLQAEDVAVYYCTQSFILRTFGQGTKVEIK
Protocol: as §1, §2, §3

CTL-62227 = molecular target: T11, CTL-62227; test: SPR Carterra, yeast anti-ID
T11 construct: also called odronextamab
Protocol: as §1, §2, §3

CTL-62228 = molecular target: T12, CTL-62228; test: SPR Carterra, yeast anti-ID
T12 construct: also called glofitamab
Protocol: as §1, §2, §3

CTL-62240 = molecular target: T13, CTL-62240; test: SPR Carterra, yeast anti-ID
T13 construct: also called ONO-4685
Protocol: as §1, §2, §3

ADI-50024 = molecular target: T14, ADI-50024; test: SPR Carterra avidity, yeast anti-ID
T14 construct: anti-CD3 antibody made in CHO cells, captured by anti-human Fc
Protocol: as §1, §2, §3

ADI-67450 = molecular target: T15, ADI-67450; test: SPR Carterra avidity, yeast anti-ID
T15 construct: anti-CD3 antibody made in CHO cells, captured by anti-human Fc
Protocol: as §1, §2, §3

ADI-67447 = molecular target: T16, ADI-67447; test: SPR Carterra avidity, yeast anti-ID
T16 construct: anti-CD3 antibody made in CHO cells, captured by anti-human Fc
Protocol: as §1, §2, §3

ADI-26919 = molecular target: T17, ADI-26919; test: SPR Carterra avidity, yeast anti-ID
T17 construct: anti-CD3 antibody made in CHO cells, captured by anti-human Fc
T17 sequence (VH, as listed by the source limits assumed, chain 1 of 2): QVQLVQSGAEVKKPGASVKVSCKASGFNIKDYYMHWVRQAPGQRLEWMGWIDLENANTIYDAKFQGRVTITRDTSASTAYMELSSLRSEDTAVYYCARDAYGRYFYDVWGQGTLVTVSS
Protocol: as §1, §2, §3

ADI-26916 IgG = molecular target: T18, ADI-26916 IgG; test: SPR Carterra avidity, yeast anti-ID
T18 construct: anti-CD3 IgG
T18 sequence (VH, as listed by the source, chain 1 of 2): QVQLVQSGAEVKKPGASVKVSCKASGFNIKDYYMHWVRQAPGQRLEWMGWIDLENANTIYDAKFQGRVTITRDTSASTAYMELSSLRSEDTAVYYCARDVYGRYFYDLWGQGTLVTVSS
Protocol: as §1, §2, §3

ADI-26912 = molecular target: T19, ADI-26912; test: SPR Carterra avidity, yeast anti-ID
T19 construct: anti-CD3 antibody made in CHO cells, captured by anti-human Fc
Protocol: as §1, §2, §3

ADI-26924 = molecular target: T20, ADI-26924; test: SPR Carterra avidity, yeast anti-ID
T20 construct: anti-CD3 antibody made in CHO cells, captured by anti-human Fc
Protocol: as §1, §2, §3

ADI-48576 = molecular target: T21, ADI-48576; test: SPR Carterra avidity, yeast anti-ID
T21 construct: pH-dependent anti-CD3 antibody made in CHO cells
T21 sequence (VH, as listed by the source, chain 1 of 2): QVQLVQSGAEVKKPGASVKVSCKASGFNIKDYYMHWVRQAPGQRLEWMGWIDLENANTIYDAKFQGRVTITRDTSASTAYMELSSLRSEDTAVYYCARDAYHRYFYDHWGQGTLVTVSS
T21 sequence (VL, as listed by the source, chain 2 of 2): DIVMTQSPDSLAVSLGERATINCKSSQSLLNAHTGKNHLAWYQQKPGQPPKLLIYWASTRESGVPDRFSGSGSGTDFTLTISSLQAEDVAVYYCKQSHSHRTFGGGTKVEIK
Protocol: as §1, §2, §3

ADI-48592 = molecular target: T22, ADI-48592; test: SPR Carterra avidity, yeast anti-ID
T22 construct: pH-dependent anti-CD3 antibody made in CHO cells
Protocol: as §1, §2, §3

ADI-48650 = molecular target: T23, ADI-48650; test: SPR Carterra avidity, yeast anti-ID
T23 construct: pH-dependent anti-CD3 antibody made in CHO cells
T23 sequence (VH, as listed by the source, chain 1 of 2): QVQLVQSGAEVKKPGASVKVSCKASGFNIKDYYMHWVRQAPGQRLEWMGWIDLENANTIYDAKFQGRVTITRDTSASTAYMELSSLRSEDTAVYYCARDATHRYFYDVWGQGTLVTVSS
T23 sequence (VL, as listed by the source, chain 2 of 2): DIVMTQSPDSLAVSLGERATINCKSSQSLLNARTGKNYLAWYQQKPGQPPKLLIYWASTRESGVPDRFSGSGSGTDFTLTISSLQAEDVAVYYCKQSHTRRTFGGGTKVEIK
Protocol: as §1, §2, §3

ADI-74965 = molecular target: T24, ADI-74965; test: SPR Carterra avidity, yeast anti-ID
T24 construct: pH-dependent anti-CD3 antibody made in CHO cells
Protocol: as §1, §2, §3

ADI-74966 = molecular target: T25, ADI-74966; test: SPR Carterra avidity, yeast anti-ID
T25 construct: pH-dependent anti-CD3 antibody made in CHO cells
T25 sequence (VL, as listed by the source, chain 2 of 2): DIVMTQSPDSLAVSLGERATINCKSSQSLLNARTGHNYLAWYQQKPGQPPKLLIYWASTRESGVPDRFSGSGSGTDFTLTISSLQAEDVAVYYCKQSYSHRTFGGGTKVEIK
Protocol: as §1, §2, §3

ADI-74968 = molecular target: T26, ADI-74968; test: SPR Carterra avidity, yeast anti-ID
T26 construct: pH-dependent anti-CD3 antibody made in CHO cells
Protocol: as §1, §2, §3

ADI-76358 = molecular target: T27, ADI-76358; test: SPR Carterra avidity, yeast anti-ID
T27 construct: anti-CD3 antibody made in CHO cells, captured by anti-human Fc
Protocol: as §1, §2, §3

ADI-76359 = molecular target: T28, ADI-76359; test: SPR Carterra avidity, yeast anti-ID
T28 construct: anti-CD3 antibody made in CHO cells, captured by anti-human Fc
T28 sequence (VH, as listed by the source, chain 1 of 2): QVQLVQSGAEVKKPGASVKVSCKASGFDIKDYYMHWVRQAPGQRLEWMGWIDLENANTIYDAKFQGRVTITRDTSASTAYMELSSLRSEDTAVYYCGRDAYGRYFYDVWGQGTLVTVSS
Protocol: as §1, §2, §3

ADI-76360 = molecular target: T29, ADI-76360; test: SPR Carterra avidity, yeast anti-ID
T29 construct: anti-CD3 antibody made in CHO cells, captured by anti-human Fc
T29 sequence (VH, as listed by the source, chain 1 of 2): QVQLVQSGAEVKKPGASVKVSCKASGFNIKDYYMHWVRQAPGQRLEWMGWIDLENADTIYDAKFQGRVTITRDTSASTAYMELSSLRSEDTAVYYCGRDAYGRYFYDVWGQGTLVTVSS
Protocol: as §1, §2, §3

ADI-76361 = molecular target: T30, ADI-76361; test: SPR Carterra avidity, yeast anti-ID
T30 construct: anti-CD3 antibody made in CHO cells, captured by anti-human Fc
T30 sequence (VH, as listed by the source, chain 1 of 2): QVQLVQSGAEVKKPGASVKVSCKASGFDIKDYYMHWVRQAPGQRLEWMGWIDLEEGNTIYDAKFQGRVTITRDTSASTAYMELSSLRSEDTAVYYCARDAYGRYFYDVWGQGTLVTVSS
Protocol: as §1, §2, §3

ADI-76362 = molecular target: T31, ADI-76362; test: SPR Carterra avidity, yeast anti-ID
T31 construct: anti-CD3 antibody made in CHO cells, captured by anti-human Fc
Protocol: as §1, §2, §3

ADI-22523 Fab = molecular target: T32, ADI-22523 Fab; test: BLI; tip anti-ID IgG, solution ADI-22523 Fab
T32 construct: anti-CD3 Fab by papain digestion of the IgG
Protocol: (§4) ForteBio affinity measurements were performed generally as previously described (Estep et al., MAbs. 2013 5(2):270-8). Briefly, ForteBio affinity measurements were performed by loading antibody IgG or Fabs on-line onto AHC sensors. Sensors were equilibrated off-line in assay buffer for 30 minutes and then monitored on-line for 60 seconds for baseline establishment. For avid binding measurement, sensors with loaded antibodies were exposed to IgG or Fab solutions for 3 minutes, afterwards they were transferred to assay buffer for 3 minutes for off-rate measurement. Kinetics data were fit using a 1:1 binding model in the data analysis software provided by ForteBio to obtain equilibrium dissociation constant (KD=koff/kₒₙ) values. In each column, tip-immobilized antibodies are listed first and solution antibodies second.

ADI-22523 IgG = molecular target: T33, ADI-22523 IgG; test: BLI; tip anti-ID IgG, solution ADI-22523 IgG
T33 construct: anti-CD3 IgG
Protocol: as §4

ADI-26906 IgG = molecular target: T34, ADI-26906 IgG; test: SPR Carterra avidity, yeast anti-ID, *koff limit
T34 construct: anti-CD3 IgG
Protocol: as §1, §2, §3

ADI-26913 IgG = molecular target: T35, ADI-26913 IgG; test: SPR Carterra avidity, yeast anti-ID, *koff limit
T35 construct: anti-CD3 IgG
Protocol: as §1, §2, §3

ADI-26920 IgG = molecular target: T36, ADI-26920 IgG; test: SPR Carterra avidity, yeast anti-ID, *koff limit
T36 construct: anti-CD3 IgG
Protocol: as §1, §2, §3

ADI-26943 = molecular target: T37, ADI-26943; test: SPR Carterra avidity, yeast anti-ID, *koff limit
T37 construct: anti-CD3 antibody made in CHO cells, captured by anti-human Fc
Protocol: as §1, §2, §3

ADI-76357 = molecular target: T38, ADI-76357; test: SPR Carterra avidity, yeast anti-ID, *koff limit
T38 construct: anti-CD3 antibody made in CHO cells, captured by anti-human Fc
Protocol: as §1, §2, §3

T1 sequence (VH, as listed by the source limits assumed, chain 1 of 2): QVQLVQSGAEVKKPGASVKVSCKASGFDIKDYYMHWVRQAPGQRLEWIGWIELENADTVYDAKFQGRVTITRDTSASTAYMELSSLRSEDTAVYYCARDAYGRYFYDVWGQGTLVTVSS

B1: ADI-34144 (antibody, V domains shown)
VH: EVQLLESGGGLVQPGGSLRLSCAASGFTFSSYAMSWVRQAPGKGLEWVSTISGSGGSTYYADSVKGRFTISRDNSKNTLYLQMNSLRAEDTAVYYCARLGGRRGSGSSYYYYYGMDVWGQGTTVTVSS
VL: not shown
notes: anti-ID IgG
binding result (ADI-70326): no binding (tested: up to 200 nM) | binding result (ADI-70327): no binding (tested: up to 200 nM) | binding result (ADI-70330): no binding (tested: up to 200 nM) | binding result (ADI-67445): no binding (tested: up to 200 nM) | binding result (ADI-26909): no binding (tested: up to 200 nM) | binding result (ADI-26921 IgG): no binding (tested: up to 200 nM) | binding result (ADI-26915): no binding (tested: up to 200 nM) | binding result (ADI-48587): no binding (tested: up to 200 nM) | binding result (ADI-74967): no binding (tested: up to 200 nM) | binding result (CTL-62223): no binding (tested: up to 200 nM) | binding result (CTL-62227): no binding (tested: up to 200 nM) | binding result (CTL-62228): no binding (tested: up to 200 nM) | binding result (CTL-62240): no binding (tested: up to 200 nM) | binding result (ADI-50024): binds | binding result (ADI-67450): binds | Kd (ADI-67447): 22 nM | Kd (ADI-26919): 32 nM | Kd (ADI-26916 IgG): 16 nM | binding result (ADI-26912): binds | Kd (ADI-26924): 4.9 nM | binding result (ADI-48576): binds | binding result (ADI-48592): binds | binding result (ADI-48650): binds | binding result (ADI-74965): binds | Kd (ADI-74966): 59 nM | Kd (ADI-74968): 72 nM | binding result (ADI-76358): binds | Kd (ADI-76359): 17 nM | binding result (ADI-76360): binds | binding result (ADI-76361): binds | binding result (ADI-76362): binds | Kd (ADI-22523 Fab): 6.17 nM | Kd (ADI-22523 IgG): 2.6 nM | Kd (ADI-26906 IgG): 12 nM | Kd (ADI-26913 IgG): 8.6 nM | Kd (ADI-26920 IgG): 7.5 nM | Kd (ADI-26943): 5.1 nM | Kd (ADI-76357): 6.3 nM
